From US20230416396A1 (Regeneron, published 2023)

Key:
[1] = biological target: T1, human 4-1BB on cells (human, UniProt Q07011 24-255); test: cell-based or functional assay
[2] = biological target: T1, human 4-1BB on cells; test: cell-based or functional assay; remark: listed apart in the source
[3] = biological target: T1, human 4-1BB on cells; test: cell-based or functional assay; remark: listed apart in the source
[4] = biological target: T2, human 4-1BB expressed with a C-terminal myc-myc-hexahistidine tag (human, UniProt Q07011 24-186); test: SPR Biacore 8k, antibody captured by anti-human Fc, h4-1BB.mmH as analyte, 25 C
T2 construct: also called h4-1BB.mmH; REGN3584; not shown: C-terminal myc-myc-hexahistidine tag
Method: (§1) Equilibrium dissociation constants (KD values) for human 4-1BB expressed with a C-terminal myc-myc-hexahistidine tag (h4-1BB.mmH, REGN3584) or human 4-1BB expressed with a C-terminal murine Fc tag (h4-1BB.mFc, REGN3585) binding to purified anti-CD38×4-1BB 1+2 antibodies were determined using a real-time surface plasmon resonance biosensor using a Biacore 8k instrument. The CM5 Biacore sensor surface was derivatized by amine coupling with a monoclonal mouse anti-human Fc antibody (REGN2567). All Biacore binding studies were performed in a buffer composed of 0.01M HEPES pH 7.4, 0.15M NaCl, 3 mM EDTA, 0.05% v/v Surfactant P20 (HBS-EP running buffer). […] Antibody-reagent association was monitored for 5 minutes while dissociation in HBS-EP running buffer was monitored for 10 minutes. At the end of each cycle, the anti-CD38×4-1BB 1+2 antibody capture surface was regenerated using a 10 second injection of 20 mM phosphoric acid. All binding kinetics experiments were performed at 25° C.
(§2) Kinetic association (kₐ) and dissociation (kd) rate constants were determined by fitting the real-time sensorgrams to a 1:1 binding model using Cytiva Insight curve fitting software. Binding dissociation equilibrium constants (KD) and dissociative half-lives (t/2) were calculated from the kinetic rate constants as: […]

[5] = biological target: T3, human 4-1BB expressed with a C-terminal murine Fc tag (human, UniProt Q07011 24-186); test: SPR Biacore 8k, antibody captured by anti-human Fc, h4-1BB.mFc as analyte, 25 C
T3 construct: also called h4-1BB.mFc; REGN3585; not shown: C-terminal murine Fc tag
Method: as §1, §2

[6] = biological target: T3, human 4-1BB expressed with a C-terminal …; test: SPR Biacore 4000, h4-1BB.mFc captured by anti-mouse Fc, antibody as analyte, 25 C
Method: Equilibrium dissociation constants (KD values) for human 4-1BB expressed with a C-terminal murine Fc tag (h4-1BB.mFc, REGN3585) binding to purified anti-CD38×4-1BB 1+2 antibodies were determined using a real-time surface plasmon resonance biosensor using a Biacore 4000 instrument. […] All Biacore binding studies were performed in a buffer composed of 0.01M HEPES pH 7.4, 0.15M NaCl, 3 mM EDTA, 0.05% v/v Surfactant P20 (HBS-EP running buffer). Different concentrations of CD38×4-1BB 1+2 constructs prepared in HBS-EP running buffer (ranging from 100 to 6.25 nM in 4-fold serial dilutions) were injected over the h4-1BB.mFc (REGN3585) captured surface at a flow rate of 30 μL/minute. Antibody-reagent association was monitored for 5 minutes while dissociation in HBS-EP running buffer was monitored for 10 minutes. At the end of each cycle, the h4-1BB.mFc capture surface was regenerated using a 40 sec injection of 10 mM glycine, pH 1.5. All binding kinetics experiments were performed at 25° C.
as §2

T1 sequence (Q07011 24-255): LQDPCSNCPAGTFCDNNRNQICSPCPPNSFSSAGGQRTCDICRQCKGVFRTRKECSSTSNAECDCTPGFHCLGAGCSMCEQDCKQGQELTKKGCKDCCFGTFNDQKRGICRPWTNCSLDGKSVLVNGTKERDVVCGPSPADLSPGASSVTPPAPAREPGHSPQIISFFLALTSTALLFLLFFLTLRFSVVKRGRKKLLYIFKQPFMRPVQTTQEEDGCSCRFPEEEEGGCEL
T2 sequence (Q07011 24-186 limits assumed): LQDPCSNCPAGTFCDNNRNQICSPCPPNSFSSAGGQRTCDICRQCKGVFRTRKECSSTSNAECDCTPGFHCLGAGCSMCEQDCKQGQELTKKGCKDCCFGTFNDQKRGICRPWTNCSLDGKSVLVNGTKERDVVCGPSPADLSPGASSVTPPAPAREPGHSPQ
T3 sequence (Q07011 24-186 limits assumed): as above

| EC50 of IL-2 release, T cells + HEK293/CD20/CD38 + REGN2281 [1] | EC50 of IL-2 release, T cells + MOLP-8 + REGN5458 [1] | EC50 of IL-2 release, T cells + NALM-6 [1] | MAX IL-2 release, T cells + HEK293/CD20 + REGN2281 [1] | MAX IL-2 release, T cells + HEK293/CD20/CD38 + REGN2281 [1] | MAX IL-2 release, T cells + MOLP-8 + IsoC [1] | MAX IL-2 release, T cells + MOLP-8 + REGN5458 [1] | MAX IL-2 release, T cells + NALM-6 [1] | EC50 of IFNγ release, T cells + HEK293/CD20/CD38 + REGN2281 [2] | EC50 of IFNγ release, T cells + MOLP-8 + REGN5458 [2] | MAX IFNγ release, T cells + HEK293/CD20 + REGN2281 [2] | MAX IFNγ release, T cells + HEK293/CD20/CD38 + REGN2281 [2] | MAX IFNγ release, T cells + MOLP-8 + IsoC [2] | MAX IFNγ release, T cells + MOLP-8 + REGN5458 [2] | MAX IFNγ release, T cells + NALM-6 [2] | EC50 of luciferase activity, HEK293/NFkB-Luc/h4-1BB reporter + OPM2 [3] | MAX luciferase activity, HEK293/NFkB-Luc/h4-1BB reporter + HEK293/CD20 [3] | MAX luciferase activity, HEK293/NFkB-Luc/h4-1BB reporter + HEK293/CD20/CD38 [3] | MAX luciferase activity, HEK293/NFkB-Luc/h4-1BB reporter + MOLP-8 [3] | MAX luciferase activity, HEK293/NFkB-Luc/h4-1BB reporter + OPM2 [3] | also measured | Binder |
| --- | --- | --- | --- | --- | --- | --- | --- | --- | --- | --- | --- | --- | --- | --- | --- | --- | --- | --- | --- | --- | --- |
| 0.0607 nM | 0.133 nM | 0.0717 nM | 52 pg/mL | 912 pg/mL | 96 pg/mL | 79 pg/mL | 205 pg/mL | 0.0526 nM | 0.0725 nM | 1570 pg/mL | 5270 pg/mL | 161 pg/mL | 3410 pg/mL | 658 pg/mL | 0.0219 nM | 1e+06 RLU | 2.4e+06 RLU | 2.2e+06 RLU | 2.1e+06 RLU | EC50 of IFNγ release, T cells + NALM-6 [2]: 0.0419 nM; 100 nM h4-1BB.mmH Bind (RU) [4]: 107 RU; Kd [4]: 13.8 nM; koff [4]: 0.00494 s⁻¹; kon [4]: 358000 M⁻¹ s⁻¹; t½ [4]: 2.3 min; 100 nM h4-1BB.mFc Bind (RU) [5]: 283 RU; Kd [5]: 0.86 nM; koff [5]: 0.000177 s⁻¹; kon [5]: 206000 M⁻¹ s⁻¹; t½ [5]: 65.3 min; 100 nM Ab Bind (RU) [6]: 234 RU; Kd [6]: 0.716 nM; koff [6]: 0.000308 s⁻¹; kon [6]: 430000 M⁻¹ s⁻¹; t½ [6]: 37.6 min | REGN9682 (bispecific antibody, human IgG4 S228P, kappa, 1+2 format, hIgG4P-PVA; The linker between the two 4-1BB Fabs is (G4S)3; also called CD38x4-1BB (1 + 2), (G4S)3; 26812P2 x 35333P2 (IN) + 35333P2 (OUT)) heavy 1: EVQLVESGGGLVQPGRSLRLSCGASGFTFDDYVMHWVRQIPGKGLEWVAGISWNSGSIGYADSVKGRFTISRDNAKNSLYLQMNSLRAEDTALYFCAKDHIDPYSSSLYYYYGMDVWGQGTTVTVSSASTKGPSVFPLAPCSRSTSESTAALGCLVKDYFPEPVTVSWNSGALTSGVHTFPAVLQSSGLYSLSSVVTVPSSSLGTKTYTCNVDHKPSNTKVDKRVGGGGSGGGGSGGGGSEVQLVESGGGLVQPGRSLRLSCGASGFTFDDYVMHWVRQIPGKGLEWVAGISWNSGSIGYADSVKGRFTISRDNAKNSLYLQMNSLRAEDTALYFCAKDHIDPYSSSLYYYYGMDVWGQGTTVTVSSASTKGPSVFPLAPCSRSTSESTAALGCLVKDYFPEPVTVSWNSGALTSGVHTFPAVLQSSGLYSLSSVVTVPSSSLGTKTYTCNVDHKPSNTKVDKRVESKYGPPCPPCPAPPVAGPSVFLFPPKPKDTLMISRTPEVTCVVVDVSQEDPEVQFNWYVDGVEVHNAKTKPREEQFNSTYRVVSVLTVLHQDWLNGKEYKCKVSNKGLPSSIEKTISKAKGQPREPQVYTLPPSQEEMTKNQVSLTCLVKGFYPSDIAVEWESNGQPENNYKTTPPVLDSDGSFFLYSRLTVDKSRWQEGNVFSCSVMHEALHNRFTQKSLSLSPGK heavy 2: EVQLVESGGGLVQPGRSLRLSCAASGFTFDDYAMHWVRQAPGKGLEWVSGISWKSDNIGYADSVKGRFTISRDNAKNSLYLQMNSLRAEDTALYYCAKALGGWKFDYYYGMDVWGQGTTVTVSSASTKGPSVFPLAPCSRSTSESTAALGCLVKDYFPEPVTVSWNSGALTSGVHTFPAVLQSSGLYSLSSVVTVPSSSLGTKTYTCNVDHKPSNTKVDKRVESKYGPPCPPCPAPPVAGPSVFLFPPKPKDTLMISRTPEVTCVVVDVSQEDPEVQFNWYVDGVEVHNAKTKPREEQFNSTYRVVSVLTVLHQDWLNGKEYKCKVSNKGLPSSIEKTISKAKGQPREPQVYTLPPSQEEMTKNQVSLTCLVKGFYPSDIAVEWESNGQPENNYKTTPPVLDSDGSFFLYSRLTVDKSRWQEGNVFSCSVMHEALHNHYTQKSLSLSLGK light: not shown |
| 0.0453 nM | 0.0833 nM | 0.0723 nM | 57 pg/mL | 709 pg/mL | 90 pg/mL | 62 pg/mL | 169 pg/mL | 0.0874 nM | 0.102 nM | 1450 pg/mL | 6820 pg/mL | 85 pg/mL | 3890 pg/mL | 651 pg/mL | 0.018 nM | 1.1e+06 RLU | 2.4e+06 RLU | 2.2e+06 RLU | 2.1e+06 RLU | EC50 of IL-2 release, T cells + MOLP-8 + IsoC [1]: 0.0361 nM; 100 nM h4-1BB.mmH Bind (RU) [4]: 101 RU; Kd [4]: 14.8 nM; koff [4]: 0.00474 s⁻¹; kon [4]: 319000 M⁻¹ s⁻¹; t½ [4]: 2.4 min; 100 nM h4-1BB.mFc Bind (RU) [5]: 267 RU; Kd [5]: 1.2 nM; koff [5]: 0.000205 s⁻¹; kon [5]: 171000 M⁻¹ s⁻¹; t½ [5]: 56.3 min; 100 nM Ab Bind (RU) [6]: 232 RU; Kd [6]: 0.717 nM; koff [6]: 0.000337 s⁻¹; kon [6]: 470000 M⁻¹ s⁻¹; t½ [6]: 34.3 min | REGN9686 (bispecific antibody, human IgG4 S228P, kappa, 1+2 format, hIgG4P-PVA; The linker between the two 4-1BB Fabs is (G4S)2; also called CD38x4-1BB (1 + 2), (G4S)2; 26812P2 x 35333P2 (IN) + 35333P2 (OUT)) heavy 1: EVQLVESGGGLVQPGRSLRLSCGASGFTFDDYVMHWVRQIPGKGLEWVAGISWNSGSIGYADSVKGRFTISRDNAKNSLYLQMNSLRAEDTALYFCAKDHIDPYSSSLYYYYGMDVWGQGTTVTVSSASTKGPSVFPLAPCSRSTSESTAALGCLVKDYFPEPVTVSWNSGALTSGVHTFPAVLQSSGLYSLSSVVTVPSSSLGTKTYTCNVDHKPSNTKVDKRVESKYGPPGGGGSGGGGSEVQLVESGGGLVQPGRSLRLSCGASGFTFDDYVMHWVRQIPGKGLEWVAGISWNSGSIGYADSVKGRFTISRDNAKNSLYLQMNSLRAEDTALYFCAKDHIDPYSSSLYYYYGMDVWGQGTTVTVSSASTKGPSVFPLAPCSRSTSESTAALGCLVKDYFPEPVTVSWNSGALTSGVHTFPAVLQSSGLYSLSSVVTVPSSSLGTKTYTCNVDHKPSNTKVDKRVESKYGPPCPPCPAPPVAGPSVFLFPPKPKDTLMISRTPEVTCVVVDVSQEDPEVQFNWYVDGVEVHNAKTKPREEQFNSTYRVVSVLTVLHQDWLNGKEYKCKVSNKGLPSSIEKTISKAKGQPREPQVYTLPPSQEEMTKNQVSLTCLVKGFYPSDIAVEWESNGQPENNYKTTPPVLDSDGSFFLYSRLTVDKSRWQEGNVFSCSVMHEALHNRFTQKSLSLSPGK heavy 2: EVQLVESGGGLVQPGRSLRLSCAASGFTFDDYAMHWVRQAPGKGLEWVSGISWKSDNIGYADSVKGRFTISRDNAKNSLYLQMNSLRAEDTALYYCAKALGGWKFDYYYGMDVWGQGTTVTVSSASTKGPSVFPLAPCSRSTSESTAALGCLVKDYFPEPVTVSWNSGALTSGVHTFPAVLQSSGLYSLSSVVTVPSSSLGTKTYTCNVDHKPSNTKVDKRVESKYGPPCPPCPAPPVAGPSVFLFPPKPKDTLMISRTPEVTCVVVDVSQEDPEVQFNWYVDGVEVHNAKTKPREEQFNSTYRVVSVLTVLHQDWLNGKEYKCKVSNKGLPSSIEKTISKAKGQPREPQVYTLPPSQEEMTKNQVSLTCLVKGFYPSDIAVEWESNGQPENNYKTTPPVLDSDGSFFLYSRLTVDKSRWQEGNVFSCSVMHEALHNHYTQKSLSLSLGK light: not shown |
